In article PMC5833442, “Cooperation between Hsp90 and mortalin/GRP75 in resistance to cell death induced by complement C5b-9” (Cell Death & Disease, 2018):

Target: T1, recombinant human Hsp90β (human, UniProt P08238 1-724)
T1 construct: Heat shock protein 90 beta (Hsp90β, constitutively expressed form, gene HSP90AB1), human, recombinant; Commercial protein; also called heat shock protein 90; purified Hsp90; source: bought: StressMarq (recombinant)
Experiment: co-sedimentation; Hsp90β mixed with C9 or BSA (1 µg each) in TBS, 1 h at 37 °C; sucrose density gradient (1–20% by text and methods, 10–30% by legend), 18 h ultracentrifugation, 4 °C; fractions dot blotted with anti-Hsp90β or anti-C9
Settings: both partners purified

T1 sequence (P08238 whole entry): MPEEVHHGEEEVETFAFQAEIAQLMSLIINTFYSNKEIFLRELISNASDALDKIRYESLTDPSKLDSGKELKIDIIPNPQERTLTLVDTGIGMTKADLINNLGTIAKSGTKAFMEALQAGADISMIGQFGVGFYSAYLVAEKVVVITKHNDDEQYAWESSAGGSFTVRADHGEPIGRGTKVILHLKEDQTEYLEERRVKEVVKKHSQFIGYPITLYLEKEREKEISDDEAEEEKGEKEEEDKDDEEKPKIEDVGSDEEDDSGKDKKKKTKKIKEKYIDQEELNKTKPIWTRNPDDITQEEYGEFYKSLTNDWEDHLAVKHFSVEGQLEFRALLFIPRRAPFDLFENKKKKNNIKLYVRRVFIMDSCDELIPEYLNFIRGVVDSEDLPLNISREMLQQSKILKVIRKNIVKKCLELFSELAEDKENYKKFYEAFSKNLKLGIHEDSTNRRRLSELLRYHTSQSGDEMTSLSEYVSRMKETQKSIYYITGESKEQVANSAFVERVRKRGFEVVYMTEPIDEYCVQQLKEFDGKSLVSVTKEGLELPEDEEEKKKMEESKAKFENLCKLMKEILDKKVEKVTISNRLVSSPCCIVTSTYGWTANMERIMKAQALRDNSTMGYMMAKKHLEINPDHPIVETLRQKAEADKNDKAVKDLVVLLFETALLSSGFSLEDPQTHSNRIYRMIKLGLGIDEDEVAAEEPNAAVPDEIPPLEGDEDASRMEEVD

binding result: binds
B1: purified human C9 (natural protein)
chain: not shown
notes: Complement component C9, human, purified; also called complement C9; complement protein C9; source: bought: Complement Technology Inc. (purified human C9)
